Test results published in patent US20140087995A1 (published 2014).
Numbered stars: 1 amine (or outer) side, 2 acyl side, 3 side chain; on linkers, the order of the positions; unused ones are H or OH. Bridge positions count the residues as written; N and C are the ends. Side chains are listed from the residue outwards. Ends that are not written are not given here. * marks the point of attachment. C20 diacid = O=C(O)CCCCCCCCCCCCCCCCCCC(=O)*; γGlu = O=C(O)[C@H](CCC(=O)[*:2])N[*:1]; AEEA = NCCOCCOCC(=O)O

T1: human calcitonin receptor (human, UniProt P30988 25-474)
T1 construct: whole, on cells; Used as membranes prepared from the transfected cells; also called hCTR; hCT
T1 sequence (looked up): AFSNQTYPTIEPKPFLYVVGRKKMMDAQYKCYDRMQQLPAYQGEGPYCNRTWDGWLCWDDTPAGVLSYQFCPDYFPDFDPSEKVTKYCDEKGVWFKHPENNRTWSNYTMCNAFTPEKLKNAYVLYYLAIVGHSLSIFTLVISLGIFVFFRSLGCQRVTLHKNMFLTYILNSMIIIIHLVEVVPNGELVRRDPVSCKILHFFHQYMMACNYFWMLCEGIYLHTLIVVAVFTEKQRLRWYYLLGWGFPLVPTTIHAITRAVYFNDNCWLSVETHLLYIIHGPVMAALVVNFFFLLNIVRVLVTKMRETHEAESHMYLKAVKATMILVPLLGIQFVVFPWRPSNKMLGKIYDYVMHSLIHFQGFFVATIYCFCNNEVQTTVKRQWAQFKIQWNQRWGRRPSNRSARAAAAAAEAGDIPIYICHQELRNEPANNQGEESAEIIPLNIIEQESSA

T2: rat calcitonin receptor (rat, UniProt P32214 25-516)
T2 construct: whole, on cells; Used as membranes prepared from the transfected cells; also called rCTR; rCT
T2 sequence (looked up): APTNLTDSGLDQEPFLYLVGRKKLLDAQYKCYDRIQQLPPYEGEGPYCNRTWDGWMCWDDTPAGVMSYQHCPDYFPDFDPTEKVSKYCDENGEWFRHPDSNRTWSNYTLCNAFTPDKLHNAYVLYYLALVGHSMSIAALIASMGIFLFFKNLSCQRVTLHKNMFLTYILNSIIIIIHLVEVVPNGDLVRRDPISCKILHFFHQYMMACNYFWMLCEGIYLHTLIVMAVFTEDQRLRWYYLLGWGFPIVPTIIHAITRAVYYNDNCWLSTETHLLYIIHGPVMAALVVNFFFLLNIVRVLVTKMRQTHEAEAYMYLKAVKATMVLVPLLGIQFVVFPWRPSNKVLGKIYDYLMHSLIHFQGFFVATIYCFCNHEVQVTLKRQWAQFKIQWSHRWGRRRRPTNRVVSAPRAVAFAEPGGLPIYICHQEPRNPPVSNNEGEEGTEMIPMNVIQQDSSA

T3: rat amylin receptor (rat calcitonin receptor with rat RAMP 3) (rat, UniProt P32214 25-516; Q9JJ73 23-147)
T3 construct: whole, on cells; Used as membranes prepared from the transfected cells; also called rAmylin-R; rAmylin
T3 sequence (looked up) 1: T2 sequence (looked up)
T3 sequence (looked up) 2: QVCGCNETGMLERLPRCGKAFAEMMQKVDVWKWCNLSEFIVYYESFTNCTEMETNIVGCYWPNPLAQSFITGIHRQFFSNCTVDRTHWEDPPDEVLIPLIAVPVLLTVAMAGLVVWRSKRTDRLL

T4: human calcitonin receptor (human, UniProt P30988 25-474)
T4 sequence (looked up): T1 sequence (looked up)

B1: N^-1-[(4S)-4-carboxy-4-(19-carboxynonadecanoylamino)butanoyl]-Gly[Arg1,Ala14,Arg17,Pro21,Pro27,His34]-h-amylin (peptide)
peptide: {C20 diacid-γGlu}-GRCNTATCATQRLAAFLRHSSPNFGAIPSSTNVGHNTY-NH2
modifications: disulfide 3-8
SMILES: CC[C@H](C)[C@H](NC(=O)[C@H](C)NC(=O)CNC(=O)[C@H](Cc1ccccc1)NC(=O)[C@H](CC(N)=O)NC(=O)[C@@H]1CCCN1C(=O)[C@H](CO)NC(=O)[C@H](CO)NC(=O)[C@H](Cc1c[nH]cn1)NC(=O)[C@H](CCCNC(=N)N)NC(=O)[C@H](CC(C)C)NC(=O)[C@H](Cc1ccccc1)NC(=O)[C@H](C)NC(=O)[C@H](C)NC(=O)[C@H](CC(C)C)NC(=O)[C@H](CCCNC(=N)N)NC(=O)[C@H](CCC(N)=O)NC(=O)[C@@H](NC(=O)[C@H](C)NC(=O)[C@@H]1CSSC[C@H](NC(=O)[C@H](CCCNC(=N)N)NC(=O)CNC(=O)CC[C@H](NC(=O)CCCCCCCCCCCCCCCCCCC(=O)O)C(=O)O)C(=O)N[C@@H](CC(N)=O)C(=O)N[C@@H]([C@@H](C)O)C(=O)N[C@@H](C)C(=O)N[C@@H]([C@@H](C)O)C(=O)N1)[C@@H](C)O)C(=O)N1CCC[C@H]1C(=O)N[C@@H](CO)C(=O)N[C@@H](CO)C(=O)N[C@H](C(=O)N[C@@H](CC(N)=O)C(=O)N[C@H](C(=O)NCC(=O)N[C@@H](Cc1c[nH]cn1)C(=O)N[C@@H](CC(N)=O)C(=O)N[C@H](C(=O)N[C@@H](Cc1ccc(O)cc1)C(N)=O)[C@@H](C)O)C(C)C)[C@@H](C)O
notes: Analogue of human amylin extended by Gly at the N-terminus; disulfide and C-terminal amide as told for h-amylin
B2: N{-1}-[(4S)-4-carboxy-4-(19-carboxynonadecanoylamino)butanoyl]-Gly[Arg1,His14,Arg17,Pro21,Pro27]-h-amylin (peptide)
peptide: {C20 diacid-γGlu}-GRCNTATCATQRLAHFLRHSSPNFGAIPSSTNVGSNTY-NH2
modifications: disulfide 3-8
SMILES: CC[C@H](C)[C@H](NC(=O)[C@H](C)NC(=O)CNC(=O)[C@H](Cc1ccccc1)NC(=O)[C@H](CC(N)=O)NC(=O)[C@@H]1CCCN1C(=O)[C@H](CO)NC(=O)[C@H](CO)NC(=O)[C@H](Cc1c[nH]cn1)NC(=O)[C@H](CCCNC(=N)N)NC(=O)[C@H](CC(C)C)NC(=O)[C@H](Cc1ccccc1)NC(=O)[C@H](Cc1c[nH]cn1)NC(=O)[C@H](C)NC(=O)[C@H](CC(C)C)NC(=O)[C@H](CCCNC(=N)N)NC(=O)[C@H](CCC(N)=O)NC(=O)[C@@H](NC(=O)[C@H](C)NC(=O)[C@@H]1CSSC[C@H](NC(=O)[C@H](CCCNC(=N)N)NC(=O)CNC(=O)CC[C@H](NC(=O)CCCCCCCCCCCCCCCCCCC(=O)O)C(=O)O)C(=O)N[C@@H](CC(N)=O)C(=O)N[C@@H]([C@@H](C)O)C(=O)N[C@@H](C)C(=O)N[C@@H]([C@@H](C)O)C(=O)N1)[C@@H](C)O)C(=O)N1CCC[C@H]1C(=O)N[C@@H](CO)C(=O)N[C@@H](CO)C(=O)N[C@H](C(=O)N[C@@H](CC(N)=O)C(=O)N[C@H](C(=O)NCC(=O)N[C@@H](CO)C(=O)N[C@@H](CC(N)=O)C(=O)N[C@H](C(=O)N[C@@H](Cc1ccc(O)cc1)C(N)=O)[C@@H](C)O)C(C)C)[C@@H](C)O
notes: Analogue of human amylin extended by Gly at the N-terminus; disulfide and C-terminal amide as told for h-amylin; also called compound 99
B3: N^ε1-[2-[2-[2-[[(4S)-4-carboxy-4-(19-carboxynonadecanoylamino)butanoyl]amino]ethoxy]ethoxy]acetyl]-[His14,Arg17,Pro21,Pro27,His34]-h-amylin (peptide)
peptide: K([AEEA-γGlu-C20 diacid])CNTATCATQRLAHFLRHSSPNFGAIPSSTNVGHNTY-NH2
modifications: disulfide 2-7; N-terminus assumed
SMILES: CC[C@H](C)[C@H](NC(=O)[C@H](C)NC(=O)CNC(=O)[C@H](Cc1ccccc1)NC(=O)[C@H](CC(N)=O)NC(=O)[C@@H]1CCCN1C(=O)[C@H](CO)NC(=O)[C@H](CO)NC(=O)[C@H](Cc1c[nH]cn1)NC(=O)[C@H](CCCNC(=N)N)NC(=O)[C@H](CC(C)C)NC(=O)[C@H](Cc1ccccc1)NC(=O)[C@H](Cc1c[nH]cn1)NC(=O)[C@H](C)NC(=O)[C@H](CC(C)C)NC(=O)[C@H](CCCNC(=N)N)NC(=O)[C@H](CCC(N)=O)NC(=O)[C@@H](NC(=O)[C@H](C)NC(=O)[C@@H]1CSSC[C@H](NC(=O)[C@@H](N)CCCCNC(=O)COCCOCCNC(=O)CC[C@H](NC(=O)CCCCCCCCCCCCCCCCCCC(=O)O)C(=O)O)C(=O)N[C@@H](CC(N)=O)C(=O)N[C@@H]([C@@H](C)O)C(=O)N[C@@H](C)C(=O)N[C@@H]([C@@H](C)O)C(=O)N1)[C@@H](C)O)C(=O)N1CCC[C@H]1C(=O)N[C@@H](CO)C(=O)N[C@@H](CO)C(=O)N[C@H](C(=O)N[C@@H](CC(N)=O)C(=O)N[C@H](C(=O)NCC(=O)N[C@@H](Cc1c[nH]cn1)C(=O)N[C@@H](CC(N)=O)C(=O)N[C@H](C(=O)N[C@@H](Cc1ccc(O)cc1)C(N)=O)[C@@H](C)O)C(C)C)[C@@H](C)O
notes: Synthetic acylated analogue of human amylin; also called compound 80
B4: N^ε1-[(4S)-4-carboxy-4-(19-carboxynonadecanoylamino)butanoyl]-[His14,Arg17,Pro21,Pro27,His34]-h-amylin (peptide)
peptide: K([γGlu-C20 diacid])CNTATCATQRLAHFLRHSSPNFGAIPSSTNVGHNTY-NH2
modifications: disulfide 2-7; N-terminus assumed
SMILES: CC[C@H](C)[C@H](NC(=O)[C@H](C)NC(=O)CNC(=O)[C@H](Cc1ccccc1)NC(=O)[C@H](CC(N)=O)NC(=O)[C@@H]1CCCN1C(=O)[C@H](CO)NC(=O)[C@H](CO)NC(=O)[C@H](Cc1c[nH]cn1)NC(=O)[C@H](CCCNC(=N)N)NC(=O)[C@H](CC(C)C)NC(=O)[C@H](Cc1ccccc1)NC(=O)[C@H](Cc1c[nH]cn1)NC(=O)[C@H](C)NC(=O)[C@H](CC(C)C)NC(=O)[C@H](CCCNC(=N)N)NC(=O)[C@H](CCC(N)=O)NC(=O)[C@@H](NC(=O)[C@H](C)NC(=O)[C@@H]1CSSC[C@H](NC(=O)[C@@H](N)CCCCNC(=O)CC[C@H](NC(=O)CCCCCCCCCCCCCCCCCCC(=O)O)C(=O)O)C(=O)N[C@@H](CC(N)=O)C(=O)N[C@@H]([C@@H](C)O)C(=O)N[C@@H](C)C(=O)N[C@@H]([C@@H](C)O)C(=O)N1)[C@@H](C)O)C(=O)N1CCC[C@H]1C(=O)N[C@@H](CO)C(=O)N[C@@H](CO)C(=O)N[C@H](C(=O)N[C@@H](CC(N)=O)C(=O)N[C@H](C(=O)NCC(=O)N[C@@H](Cc1c[nH]cn1)C(=O)N[C@@H](CC(N)=O)C(=O)N[C@H](C(=O)N[C@@H](Cc1ccc(O)cc1)C(N)=O)[C@@H](C)O)C(C)C)[C@@H](C)O
notes: Synthetic acylated analogue of human amylin; also called compound 81
B5: N^ε1-[(4S)-4-carboxy-4-[[(4S)-4-carboxy-4-(19-carboxynonadecanoylamino)butanoyl]amino]butanoyl]-[Arg17,Pro21,Pro27,His34]-h-amylin (peptide)
peptide: K([γGlu-γGlu-C20 diacid])CNTATCATQRLANFLRHSSPNFGAIPSSTNVGHNTY-NH2
modifications: disulfide 2-7; N-terminus assumed
SMILES: CC[C@H](C)[C@H](NC(=O)[C@H](C)NC(=O)CNC(=O)[C@H](Cc1ccccc1)NC(=O)[C@H](CC(N)=O)NC(=O)[C@@H]1CCCN1C(=O)[C@H](CO)NC(=O)[C@H](CO)NC(=O)[C@H](Cc1c[nH]cn1)NC(=O)[C@H](CCCNC(=N)N)NC(=O)[C@H](CC(C)C)NC(=O)[C@H](Cc1ccccc1)NC(=O)[C@H](CC(N)=O)NC(=O)[C@H](C)NC(=O)[C@H](CC(C)C)NC(=O)[C@H](CCCNC(=N)N)NC(=O)[C@H](CCC(N)=O)NC(=O)[C@@H](NC(=O)[C@H](C)NC(=O)[C@@H]1CSSC[C@H](NC(=O)[C@@H](N)CCCCNC(=O)CC[C@H](NC(=O)CC[C@H](NC(=O)CCCCCCCCCCCCCCCCCCC(=O)O)C(=O)O)C(=O)O)C(=O)N[C@@H](CC(N)=O)C(=O)N[C@@H]([C@@H](C)O)C(=O)N[C@@H](C)C(=O)N[C@@H]([C@@H](C)O)C(=O)N1)[C@@H](C)O)C(=O)N1CCC[C@H]1C(=O)N[C@@H](CO)C(=O)N[C@@H](CO)C(=O)N[C@H](C(=O)N[C@@H](CC(N)=O)C(=O)N[C@H](C(=O)NCC(=O)N[C@@H](Cc1c[nH]cn1)C(=O)N[C@@H](CC(N)=O)C(=O)N[C@H](C(=O)N[C@@H](Cc1ccc(O)cc1)C(N)=O)[C@@H](C)O)C(C)C)[C@@H](C)O
notes: Synthetic acylated analogue of human amylin; also called compound 86

What was measured:
[1] = target: T1, human calcitonin receptor; assay: ratio of binding IC50 at human calcitonin receptor to IC50 at human amylin receptor (reference)
In short: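 Competition binding by SPA uses membrane preparations (35 ng/μL final) in pH 7.4 Hepes buffer with 1 mM CaCl2 and 5 mM MgCl₂. Incubation lasts 120 min at 25° C, and IC₅₀ comes from one-site fitting.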

[2] = target: T2, rat calcitonin receptor; assay: ratio of binding IC50 at rat calcitonin receptor to IC50 at rat amylin receptor (reference)
[3] = target: T3, rat amylin receptor (rat calcitonin …); assay: SPA competition with 125I-rat amylin, membranes with rat calcitonin receptor + rat RAMP3 (Assay VI)
[4] = target: T2, rat calcitonin receptor; assay: SPA competition with 125I-calcitonin, membranes with rat calcitonin receptor (Assay VIII)
[5] = target: T4, human calcitonin receptor; assay: cell-based or functional assay

Binder | Ratio hCT/hAmylin binding [1] | Ratio rCT/rAmylin binding [2] | IC50 [3] | IC50 [4] | Ratio hCT/hAmylin funct. [5] | hCTR funct. EC50 (pM) [5]
B1 | 68.6 | 60.9 | 8.07 nM | 492 nM |  | 
B2 | 100 | 79.8 | 2.7 nM | 216 nM |  | 
B3 |  |  |  |  | 15.4 | 
B4 |  |  |  |  | 13.3 | 
B5 |  |  |  |  |  | 19200 pM
